Assay [1] addresses monomeric HIV-1 Ba-L gp120 (HIV-1 Ba-L).
The target is the same in assay [2]. This is another data set of the same source.
Assay [3] shares this target. The source holds these as a separate data set.

Where a chain is given by its changes, count along the chain named. Where two headings read alike, the source gives them in different places.

B1: N49P7 (antibody)
heavy: not shown
light: QSALTQPRSVSASPGQSVTISCTGTHNLVSWCQHQPGRAPKLLIYDFNKRPSGVPDRFSGSGSGGTASLTITGLQDDDDAEYFCWAYEAFGGGTKLTVLGQPKAAPSVTLFPPSSEELQANKATLVCLISDFYPGAVTVAWKADSSPVKAGVETTTPSKQSNNKYAASSYLSLTPEQWKSHRSYSCQVTHEGSTVEKTVAPTECS
As to B1, the Kd in assay [1] was 0.86 nM.

B2: N49P7.1 (antibody)
heavy: not shown
light: B1 light with G100R
Consider B2, for which the Kd in assay [2] amounted to 1.14 nM.

B3: N49P11 (antibody, V domains shown)
V domain 1: SAELVQSGAVVKKPGTSVKVSCQAYGYTFTDYLIHWLRQAPGQGLEWMGWMNPVYGQVNYAQNFQGRVSMTRDIYRETAFLEVRDLKTDDTGTYYCVRDTGDGSRRHFDSINWFLDLWGRGTWIRVAP
V domain 2: QCVLTQPRSVSGSPGQSVTISCTGTHNYVSWCQHHPGNAPKLLLYDFDKRPSGISDRFSGSRSGNTASLTISGLQPEDEADYFCWAFEAFGGGTKVLVLR
Take B3: binding in assay [3] was put at a Kd of 15.6 nM.

By Kd is commonly meant the constant that tells how readily two partners part at equilibrium. Higher therefore signals lower affinity.

Values taken from patent publication US20240117018A1 (UNIVERSITY OF MARYLAND BALTIMORE, published 2024).
